Reference: patent US20210253636A1
Where no end group is shown, it is not given here. The star is where a group is joined. biotin = biotin label attached through an aminohexanoic acid linker; Biotin = O=C1N[C@H]2[C@H](CS[C@H]2CCCCC(=O)*)N1; Ahx = NCCCCCC(=O)O

What was measured:
[1] = molecular target: peptide-binding domain of GRP78 (GRP78-PBD, amino acids 421-639) (UniProt P11021); experiment: SPR (BIACORE T200), C-terminal biotin peptide on streptavidin CM5 chip, GRP78-PBD analyte
[2] = molecular target: peptide-binding domain of GRP78 (GRP78-PBD, amino acids 421-639) (UniProt P11021); experiment: SPR (BIACORE T200), N-biotin peptide on streptavidin CM5 chip, GRP78-PBD analyte

Chain of peptide-binding domain of GRP78 (GRP78-PBD, amino acids 421-639) (P11021 421-639 limits assumed, form in doubt): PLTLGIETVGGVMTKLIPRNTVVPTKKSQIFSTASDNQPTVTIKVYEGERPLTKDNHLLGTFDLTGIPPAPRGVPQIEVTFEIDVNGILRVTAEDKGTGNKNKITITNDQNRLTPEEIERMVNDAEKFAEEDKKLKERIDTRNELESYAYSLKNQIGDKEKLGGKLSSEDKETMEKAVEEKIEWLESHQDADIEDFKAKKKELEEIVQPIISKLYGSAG

| Binder | Kd [1] [nM] | koff [1] [s⁻¹] | kon [1] [M⁻¹ s⁻¹] | Kd [2] [nM] | koff [2] [s⁻¹] | kon [2] [M⁻¹ s⁻¹] |
| --- | --- | --- | --- | --- | --- | --- |
| RPFLFPFLFYGGGGSK(Biotin) | 660 | 0.0012 | 1800 |  |  |  |
| {biotin-Ahx}-GGGGSRPFLFPFLFY [F4P13-TR-CTP, N-terminally extended with GGGGS and N-terminally biotin-labeled] |  |  |  | 2100 | 0.0017 | 790 |
| {biotin-Ahx}-GGGGSRPFLPFLPYRPFLPFLPY [F5P6-TR-CTP, N-terminally extended with GGGGS and N-terminally biotin-labeled] |  |  |  | 1000 | 0.00091 | 890 |
| {biotin-Ahx}-GGGGSRPFLPFLPY [F4P6-TR-CTP, N-terminally extended with GGGGS and N-terminally biotin-labeled] |  |  |  | 1200 | 0.0028 | 2300 |

The next lines start with the values.

| Kd [1] [nM] | koff [1] [s⁻¹] | kon [1] [M⁻¹ s⁻¹] | Kd [2] [nM] | koff [2] [s⁻¹] | kon [2] [M⁻¹ s⁻¹] | Binder |
| --- | --- | --- | --- | --- | --- | --- |
|  |  |  | 1900 | 0.003 | 1500 | {biotin-Ahx}-GGGGSRLLDTNRPFLPY [P6-CTP, N-terminally extended with GGGGS and N-terminally biotin-labeled] |
| 2700 | 0.002 | 970 |  |  |  | RLLDTNRPFLFYGGGGSK(Biotin) [P13-CTP-cBiotin (P13-CTP extended at the C-terminus with GGGGSK, biotin on the C-terminal lysine)] |
|  |  |  | 2700 | 0.0034 | 1200 | {biotin-Ahx}-GGGGSRLLDTNRPFLFY [P13-CTP, N-terminally extended with GGGGS and N-terminally biotin-labeled] |
| 1200 | 0.00029 | 240 |  |  |  | MRPFLFPFLFYGGGGSK(Biotin) |
|  |  |  | 610 | 0.0012 | 1900 | {biotin-Ahx}-GGGGSRPFLFPFLFYRPFLFPFLFY [F5P13-TR-CTP, N-terminally extended with GGGGS and N-terminally biotin-labeled] |
